For experiment [1], the target named is T1, human FcRn protein (human, UniProt P55899 24-297, limits assumed).
T1 construct: source and construct not described; also called hFcRn; FCGRT
In words: SPR, Ab on Protein L chip, hFcRn in flow, pH 6.0. As for the experimental part: (§1) The interaction between human immunoglobulin proteins and FcRn is known to be affected by the pH of their environment solution. To test whether this pH-dependent interaction correlates with the quantity of antibody variants in the brain parenchyma after in vivo administration, the affinity of certain variants towards FcRn were screened at pH 6.0 and pH 7.4 on a Biacore T200 system (GE Healthcare). All experiments were conducted at 25′ C. Antibodies were expressed and purified using the Expi293 expression system as described in Example 1. Cells were transfected with a heavy chain comprising the variable region of the 04 antibody used in Example 2 [SEQ ID NO: 1] fused to a heavy chain region bearing the indicated substitution in Table 11 and a light chain from Ab6 [SEQ TD NO: 24]. Although the CH sequences listed in Table 11 include the terminal lysine (K447), this terminal lysine was truncated during the cloning process for each of these variants for the purposes of this experiment. Antibody proteins were captured at a flow rate of 10 μL/min on a Protein L chip to a surface density of approximately 100 RU. Experiments conducted at pH 7.4 were conducted in PBST (1.06 mMKH2PO4, 155.17 mM7NaCl, 2.97 mM 4Na2PO4-7H2O, and 0.005 Tween-20). […] The antibody-FcRn complex was allowed to dissociate for 20 s before the chip was regenerated with 10 mM glycine pH 1.7. On-rates (ka) and off-rates (kd) were estimated by the best fit to a one-to-one Langmuir binding model by simultaneous fitting of the association and dissociation sensograms. The dissociation constant (KD) for FcRn binding was then calculated as the ratio of the off rate to the on rate (kd/ka).

In experiment [2] the target is T1, human FcRn protein. Nature of the experiment: SPR, Ab on Protein L chip, hFcRn in flow, pH 7.4. As for the experimental part:
as §1

From patent US20240150447A1 (CEPHALON, published 2024) come the findings set out here.

T1 sequence (P55899 24-297 limits assumed, chain 1 of 2): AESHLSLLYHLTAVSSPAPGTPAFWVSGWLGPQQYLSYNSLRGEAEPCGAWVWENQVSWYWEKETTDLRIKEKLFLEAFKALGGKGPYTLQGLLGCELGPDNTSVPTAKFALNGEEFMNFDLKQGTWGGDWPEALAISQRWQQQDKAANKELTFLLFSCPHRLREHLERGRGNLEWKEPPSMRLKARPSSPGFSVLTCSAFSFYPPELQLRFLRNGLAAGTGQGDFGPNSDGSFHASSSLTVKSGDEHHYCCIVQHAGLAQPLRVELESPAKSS
T1 sequence (chain, as listed by the source limits assumed, chain 2 of 2): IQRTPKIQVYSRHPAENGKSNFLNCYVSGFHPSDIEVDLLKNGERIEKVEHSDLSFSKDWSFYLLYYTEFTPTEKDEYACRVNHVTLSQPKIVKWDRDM

B1: hIgG1 M252Y/S254T/T256E/N434W, O4 VH with Ab6 light chain (antibody)
heavy: QVQLRQSGPGLVQPSQSLSITCTVSGFSLTSYGVHWFRQSPGKGLEWLGVIWSGGSTDYNAAFISRLSISKDNSKSQVFFKMNSLQANDTAIYYCARNRGRYNYYAMDYWGQGTSVTVSSASTKGPSVFPLAPSSKSTSGGTAALGCLVKDYFPEPVTVSWNSGALTSGVHTFPAVLQSSGLYSLSSVVTVPSSSLGTQTYICNVNHKPSNTKVDKKVEPKSCDKTHTCPPCPAPELLGGPSVFLFPPKPKDTLYITREPEVTCVVVDVSHEDPEVKFNWYVDGVEVHNAKTKPREEQYNSTYRVVSVLTVLHQDWLNGKEYKCKVSNKALPAPIEKTISKAKGQPREPQVYTLPPSRDELTKNQVSLTCLVKGFYPSDIAVEWESNGQPENNYKTTPPVLDSDGSFFLYSKLTVDKSRWQQGNVFSCSVMHEALHWHYTQKSLSLSPG
light: not shown
notes: hIgG1
For orientation: Kd means the free concentration of one partner at which half of the binding sites on the other are occupied at equilibrium, for simple one-to-one binding. A higher Kd goes with weaker binding. Usually koff stands for the rate constant with which the complex falls apart. A higher koff goes with a short-lived complex. One may read the kon as the second-order rate constant of association. A lower kon goes with slow association. As to B1, in experiment [1], the Kd is 4.38 nM, the off-rate (koff) was determined as 0.00655 s⁻¹ and the on-rate constant (kon) turned out to be 1.49e+06 M⁻¹ s⁻¹.

B2: hIgG1 M252Y/T256E/V308P/N434W, O4 VH with Ab6 light chain (antibody)
heavy: QVQLRQSGPGLVQPSQSLSITCTVSGFSLTSYGVHWFRQSPGKGLEWLGVIWSGGSTDYNAAFISRLSISKDNSKSQVFFKMNSLQANDTAIYYCARNRGRYNYYAMDYWGQGTSVTVSSASTKGPSVFPLAPSSKSTSGGTAALGCLVKDYFPEPVTVSWNSGALTSGVHTFPAVLQSSGLYSLSSVVTVPSSSLGTQTYICNVNHKPSNTKVDKKVEPKSCDKTHTCPPCPAPELLGGPSVFLFPPKPKDTLYISREPEVTCVVVDVSHEDPEVKFNWYVDGVEVHNAKTKPREEQYNSTYRVVSVLTPLHQDWLNGKEYKCKVSNKALPAPIEKTISKAKGQPREPQVYTLPPSRDELTKNQVSLTCLVKGFYPSDIAVEWESNGQPENNYKTTPPVLDSDGSFFLYSKLTVDKSRWQQGNVFSCSVMHEALHWHYTQKSLSLSPG
light: not shown
notes: hIgG1
In experiment [1], B2 yielded a Kd of 0.744 nM, a dissociation rate constant (koff) of 0.00128 s⁻¹ and an on-rate constant (kon) of 1.71e+06 M⁻¹ s⁻¹. Further, in experiment [2], the Kd worked out at 70.2 nM, the koff was 0.0341 s⁻¹ and the kon amounted to 486000 M⁻¹ s⁻¹.

B3: hIgG1 M252Y/T256A/V308P/N434W, O4 VH with Ab6 light chain (antibody)
heavy: QVQLRQSGPGLVQPSQSLSITCTVSGFSLTSYGVHWFRQSPGKGLEWLGVIWSGGSTDYNAAFISRLSISKDNSKSQVFFKMNSLQANDTAIYYCARNRGRYNYYAMDYWGQGTSVTVSSASTKGPSVFPLAPSSKSTSGGTAALGCLVKDYFPEPVTVSWNSGALTSGVHTFPAVLQSSGLYSLSSVVTVPSSSLGTQTYICNVNHKPSNTKVDKKVEPKSCDKTHTCPPCPAPELLGGPSVFLFPPKPKDTLYISRAPEVTCVVVDVSHEDPEVKFNWYVDGVEVHNAKTKPREEQYNSTYRVVSVLTPLHQDWLNGKEYKCKVSNKALPAPIEKTISKAKGQPREPQVYTLPPSRDELTKNQVSLTCLVKGFYPSDIAVEWESNGQPENNYKTTPPVLDSDGSFFLYSKLTVDKSRWQQGNVFSCSVMHEALHWHYTQKSLSLSPG
light: not shown
notes: hIgG1
In experiment [1], B3 displayed an equilibrium dissociation constant (Kd) of 0.426 nM, a koff of 0.000815 s⁻¹ and an on-rate constant (kon) of 1.91e+06 M⁻¹ s⁻¹. In experiment [2], this molecule came in with a Kd of 90.1 nM, a koff of 0.08 s⁻¹ and an on-rate constant (kon) of 893000 M⁻¹ s⁻¹.

B4: hIgG1 M252Y/T256R/V308P/N434W, O4 VH with Ab6 light chain (antibody)
heavy: QVQLRQSGPGLVQPSQSLSITCTVSGFSLTSYGVHWFRQSPGKGLEWLGVIWSGGSTDYNAAFISRLSISKDNSKSQVFFKMNSLQANDTAIYYCARNRGRYNYYAMDYWGQGTSVTVSSASTKGPSVFPLAPSSKSTSGGTAALGCLVKDYFPEPVTVSWNSGALTSGVHTFPAVLQSSGLYSLSSVVTVPSSSLGTQTYICNVNHKPSNTKVDKKVEPKSCDKTHTCPPCPAPELLGGPSVFLFPPKPKDTLYISRRPEVTCVVVDVSHEDPEVKFNWYVDGVEVHNAKTKPREEQYNSTYRVVSVLTPLHQDWLNGKEYKCKVSNKALPAPIEKTISKAKGQPREPQVYTLPPSRDELTKNQVSLTCLVKGFYPSDIAVEWESNGQPENNYKTTPPVLDSDGSFFLYSKLTVDKSRWQQGNVFSCSVMHEALHWHYTQKSLSLSPG
light: not shown
notes: hIgG1
In the case of B4, in experiment [1], binding was put at a Kd of 0.433 nM, the koff came out at 0.001 s⁻¹ and the kon came to 2.31e+06 M⁻¹ s⁻¹.

B5: hIgG1 M252Y/T256M/V308P/N434W, O4 VH with Ab6 light chain (antibody)
heavy: QVQLRQSGPGLVQPSQSLSITCTVSGFSLTSYGVHWFRQSPGKGLEWLGVIWSGGSTDYNAAFISRLSISKDNSKSQVFFKMNSLQANDTAIYYCARNRGRYNYYAMDYWGQGTSVTVSSASTKGPSVFPLAPSSKSTSGGTAALGCLVKDYFPEPVTVSWNSGALTSGVHTFPAVLQSSGLYSLSSVVTVPSSSLGTQTYICNVNHKPSNTKVDKKVEPKSCDKTHTCPPCPAPELLGGPSVFLFPPKPKDTLYISRMPEVTCVVVDVSHEDPEVKFNWYVDGVEVHNAKTKPREEQYNSTYRVVSVLTPLHQDWLNGKEYKCKVSNKALPAPIEKTISKAKGQPREPQVYTLPPSRDELTKNQVSLTCLVKGFYPSDIAVEWESNGQPENNYKTTPPVLDSDGSFFLYSKLTVDKSRWQQGNVFSCSVMHEALHWHYTQKSLSLSPG
light: not shown
notes: hIgG1
In experiment [1], B5 came in with a Kd of 0.828 nM, an off-rate (koff) of 0.00125 s⁻¹ and an on-rate constant (kon) of 1.51e+06 M⁻¹ s⁻¹. In experiment [2], this molecule registered a Kd of 37.2 nM, an off-rate constant (koff) of 0.28 s⁻¹ and an association rate constant (kon) of 7.62e+06 M⁻¹ s⁻¹.

B6: hIgG1 M252Y/T256H/V308P/N434W, O4 VH with Ab6 light chain (antibody)
heavy: QVQLRQSGPGLVQPSQSLSITCTVSGFSLTSYGVHWFRQSPGKGLEWLGVIWSGGSTDYNAAFISRLSISKDNSKSQVFFKMNSLQANDTAIYYCARNRGRYNYYAMDYWGQGTSVTVSSASTKGPSVFPLAPSSKSTSGGTAALGCLVKDYFPEPVTVSWNSGALTSGVHTFPAVLQSSGLYSLSSVVTVPSSSLGTQTYICNVNHKPSNTKVDKKVEPKSCDKTHTCPPCPAPELLGGPSVFLFPPKPKDTLYISRHPEVTCVVVDVSHEDPEVKFNWYVDGVEVHNAKTKPREEQYNSTYRVVSVLTPLHQDWLNGKEYKCKVSNKALPAPIEKTISKAKGQPREPQVYTLPPSRDELTKNQVSLTCLVKGFYPSDIAVEWESNGQPENNYKTTPPVLDSDGSFFLYSKLTVDKSRWQQGNVFSCSVMHEALHWHYTQKSLSLSPG
light: not shown
notes: hIgG1
Regarding B6, in experiment [1], binding was put at a Kd of 2.2 nM, the dissociation rate constant (koff) amounted to 0.00228 s⁻¹ and the kon worked out at 1.04e+06 M⁻¹ s⁻¹. In experiment [2], this molecule gave a Kd of 103 nM, a koff of 0.19 s⁻¹ and a kon of 1.82e+06 M⁻¹ s⁻¹.

B7: hIgG1 M252Y/T256D/V308P/N434W, O4 VH with Ab6 light chain (antibody)
heavy: QVQLRQSGPGLVQPSQSLSITCTVSGFSLTSYGVHWFRQSPGKGLEWLGVIWSGGSTDYNAAFISRLSISKDNSKSQVFFKMNSLQANDTAIYYCARNRGRYNYYAMDYWGQGTSVTVSSASTKGPSVFPLAPSSKSTSGGTAALGCLVKDYFPEPVTVSWNSGALTSGVHTFPAVLQSSGLYSLSSVVTVPSSSLGTQTYICNVNHKPSNTKVDKKVEPKSCDKTHTCPPCPAPELLGGPSVFLFPPKPKDTLYISRDPEVTCVVVDVSHEDPEVKFNWYVDGVEVHNAKTKPREEQYNSTYRVVSVLTPLHQDWLNGKEYKCKVSNKALPAPIEKTISKAKGQPREPQVYTLPPSRDELTKNQVSLTCLVKGFYPSDIAVEWESNGQPENNYKTTPPVLDSDGSFFLYSKLTVDKSRWQQGNVFSCSVMHEALHWHYTQKSLSLSPG
light: not shown
notes: hIgG1
As to B7, in experiment [1], the dissociation constant (Kd) was determined as 1.19 nM, the dissociation rate constant (koff) is 0.00211 s⁻¹ and the kon was found to be 1.77e+06 M⁻¹ s⁻¹. For the same molecule, in experiment [2], the Kd stood at 52.1 nM, the off-rate (koff) is 0.0338 s⁻¹ and the kon was found to be 650000 M⁻¹ s⁻¹.

B8: hIgG1 M252Y/T256L/V308P/N434W, O4 VH with Ab6 light chain (antibody)
heavy: QVQLRQSGPGLVQPSQSLSITCTVSGFSLTSYGVHWFRQSPGKGLEWLGVIWSGGSTDYNAAFISRLSISKDNSKSQVFFKMNSLQANDTAIYYCARNRGRYNYYAMDYWGQGTSVTVSSASTKGPSVFPLAPSSKSTSGGTAALGCLVKDYFPEPVTVSWNSGALTSGVHTFPAVLQSSGLYSLSSVVTVPSSSLGTQTYICNVNHKPSNTKVDKKVEPKSCDKTHTCPPCPAPELLGGPSVFLFPPKPKDTLYISRLPEVTCVVVDVSHEDPEVKFNWYVDGVEVHNAKTKPREEQYNSTYRVVSVLTPLHQDWLNGKEYKCKVSNKALPAPIEKTISKAKGQPREPQVYTLPPSRDELTKNQVSLTCLVKGFYPSDIAVEWESNGQPENNYKTTPPVLDSDGSFFLYSKLTVDKSRWQQGNVFSCSVMHEALHWHYTQKSLSLSPG
light: not shown
notes: hIgG1
In experiment [1], B8 returned a Kd of 2.85 nM, a koff of 0.00351 s⁻¹ and a kon of 1.23e+06 M⁻¹ s⁻¹. Besides, in experiment [2], the Kd amounted to 137 nM, the koff was found to be 0.0868 s⁻¹ and the kon is 634000 M⁻¹ s⁻¹.

B9: hIgG1 M252Y/T256P/V308P/N434W, O4 VH with Ab6 light chain (antibody)
heavy: QVQLRQSGPGLVQPSQSLSITCTVSGFSLTSYGVHWFRQSPGKGLEWLGVIWSGGSTDYNAAFISRLSISKDNSKSQVFFKMNSLQANDTAIYYCARNRGRYNYYAMDYWGQGTSVTVSSASTKGPSVFPLAPSSKSTSGGTAALGCLVKDYFPEPVTVSWNSGALTSGVHTFPAVLQSSGLYSLSSVVTVPSSSLGTQTYICNVNHKPSNTKVDKKVEPKSCDKTHTCPPCPAPELLGGPSVFLFPPKPKDTLYISRPPEVTCVVVDVSHEDPEVKFNWYVDGVEVHNAKTKPREEQYNSTYRVVSVLTPLHQDWLNGKEYKCKVSNKALPAPIEKTISKAKGQPREPQVYTLPPSRDELTKNQVSLTCLVKGFYPSDIAVEWESNGQPENNYKTTPPVLDSDGSFFLYSKLTVDKSRWQQGNVFSCSVMHEALHWHYTQKSLSLSPG
light: not shown
notes: hIgG1
In experiment [1], B9 gave a Kd of 0.0414 nM, an off-rate constant (koff) of 3.83e-05 s⁻¹ and a kon of 927000 M⁻¹ s⁻¹. In experiment [2], this molecule had a Kd of 49.8 nM, a koff of 0.02 s⁻¹ and a kon of 442000 M⁻¹ s⁻¹.
